Measurements taken from the RNAGym collection of RNA variant scans (doi:10.1073/pnas.2313332121).
This sample holds only a part of the variants without activity.

B1: TPR 5TU (parent)
chain: GGAUCUUCUCGAUCUAACAAAAAAGACAAAUCUGCCACAAAGCUUGAGAGCAUCUUCGGAUGCAGAGGCGGCAGCCUUCGGUGGCGCGAUAGCGCCAACGUUCUCAACUAUGACACGCAAAACGCGUGCUCCGUUGAAUGGAGUUUAUCAUG

Variants of: B1
Experiment: polymerase ribozyme fitness, log enrichment relative to wild type (log ratio); higher = more active; in vitro selection for triplet polymerase activity
Method in brief: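 Fitness is a logarithmic measure of how a genotype enriched relative to the wild type, with replicate averages weighted by inverse variance. The logarithm uses base 2, and enrichment came from Illumina sequencing of input and output libraries. Those libraries were PCR-built, transcribed mutants of each subunit of a heterodimeric triplet polymerase ribozyme, passed through one triplicate in vitro selection round that included frozen incubation at −7 °C, gel excision of extended constructs and streptavidin-bead capture. Genotypes were kept only if they had ≥10 input reads and ≥1 read per output.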

Variant | polymerase ribozyme fitness (log ratio)
U13G A47G G48A A89C C93U C99G | ≤ -4.2
U6G A12U | -0.722
U9G C14A C85U | -4.02
A49C A52G C93U A119U | ≤ -4.2
A60C G83A C85U U101G | -3.16
C35G A47C G67C A91C C103G | ≤ -4.2
G88A C93G C108U A120U A137U | ≤ -4.2
C95U C149U | -0.647
A26U C116U G141A | -1.75
A12U A19U A37U U55A | -3.16
C35U G59A C87U U144C | -1.17
G92A A121U | -2.71
C96A U127C | -1.71
C5A A12G C35A G42A C96U | ≤ -4.2
A21G A30G C125U G133C | ≤ -4.2
A28U A41C U61A C99A A122C | ≤ -4.2
U13C C27A C43A G86U | ≤ -4.2
C5A A12U U13A U15A G83U C95U A107U C108U | ≤ -4.2
A21U A29C A30U C32A G86A C99U C118U U134A U145C C149G | ≤ -4.2
C96U C114U A147C | -4.07
U4C A115G | -1.57

Variant | polymerase ribozyme fitness (log ratio)
U45A C76A C85A | ≤ -4.2
C85U G140U U146C | -2.87
U56A A121C C149G | -3.14
A89C U101C U146A | 0.0757
G81U A98G | -0.549
A17G U33G G50U A52U G86C C105U A106C C125A | ≤ -4.2
A19U A30U C72G C96U A106G A122C G140U | ≤ -4.2
A19U U31A A41G C87G G124U | -4.17
A12G C38U G86A C87U A121C G136A | ≤ -4.2
C36A U55A C57G C76A | -4.03
G42U G62U C63A C69U C99A C103G C108A | ≤ -4.2
A40U G84U G136U | -3.66
U15C A49G C116A A138U | -3.99
C14A A41C C51U A64U C76A A89G C95A G128A A150U | ≤ -4.2
C14G U53G U77G A91U | ≤ -4.2
C14G U44G U53A C75A U90C C93U | ≤ -4.2
C32G A73U A97U A120G G126A | ≤ -4.2
G59A A138C U146C A150G | ≤ -4.2
C10U C125U | -3.3
C85A C103G | -3.36
C27U G67A C75U G86C U144C C149A A150G | ≤ -4.2

Variant | polymerase ribozyme fitness (log ratio)
U33G C36U A60U C87U A91G C108A U109A | ≤ -4.2
C32U C51G G70A C76U G83U G84A A98G U135G | ≤ -4.2
A26C C27G A52C G80U A89G | ≤ -4.2
A122C C125A G140A G143U | ≤ -4.2
C87U C93A | -3.93
C57G G59U A60G C85G A89U A97U G128A U148A | ≤ -4.2
A16C C93A | -3.94
A22U U44A U45A A122G G140C G143U U146C | ≤ -4.2
C35U G70A G83A C116G A120C U134A | ≤ -4.2
U15G A39U G50C G70C G88U C105U | ≤ -4.2
A49C C54G C79U G88A C95G | ≤ -4.2
C85A U130G | -3.53
C36A G48A G50A C69G G71A | ≤ -4.2
A66G C76A | -3.94
C8G G94A | -3.64
A21C C54A | 0.0369
G25C A91U C96U C99A C108A A138G | ≤ -4.2
A41G U53A G59C A98G U102C G133A | ≤ -4.2
A28C A66G U148A | ≤ -4.2
A39G G48A G59A C96U U102G G128C G141A U144G | ≤ -4.2
U45G G92C | -2.2

Variant | polymerase ribozyme fitness (log ratio)
U55G C69U G71U G128A | ≤ -4.2
A47C G80A C95U U104G A120G | -0.454
U33A G80C C99U C131U | ≤ -4.2
A19U A40C G94A A107U | ≤ -4.2
C8A A64G U82A A91U A97C A122G A142C | ≤ -4.2
U31A A37U U90G C93U C125G G141A | ≤ -4.2
C69G G143C | -4.1
U55G C131A | -2.39
A17C C27U C85U G86U C123U G141A | -3.85
U82G C93U | -1.51
C85A C96A U101C G143A | ≤ -4.2
C14U U44A C57A G58C A73U G83C A91U | ≤ -4.2
C32U C116G | -2.9
U9A A47G C69A G94A C96G U101C A121C A138G | ≤ -4.2
C76A G94C | -0.703
G86U C116G | -1.04
G83C G92C G100A U104G U146A | ≤ -4.2
U9A C27U C72U | ≤ -4.2
A64C G88C U90G U102G A119U A120U C149G | ≤ -4.2
C57U G84A C99A | -1.59
C8A U15A A19U A28U A30U C38A A39C A40U G59U C99G A107U C114U | ≤ -4.2
